# According to patent US20190169289A1 (Scripps Research, published 2019):
# Like-named read-outs stand apart in the source and are kept apart here.
# Key:
# Assay in all cases: cell-based or functional assay
# CD22 [1] = biological target: T1, CD22 (UniProt P20273 20-847, limits assumed)
# CD22 [2] = biological target: T1, CD22; remark: listed apart in the source
# CD22 [3] = biological target: T1, CD22; remark: listed apart in the source
# CD22 [4] = biological target: T1, CD22; remark: listed apart in the source
# CD22 [5] = biological target: T1, CD22; remark: listed apart in the source
# CD22 [6] = biological target: T1, CD22; remark: listed apart in the source
Binder,cytotoxicity at 0.01 pM (CD22 [3]),cytotoxicity at 0.1 pM (CD22 [3]),cytotoxicity at 10 pM (CD22 [3]),cytotoxicity at 100 pM (CD22 [3]),cytotoxicity at 1000 pM (CD22 [3]),cytotoxicity at 10000 pM (CD22 [3]),EC50 of cytotoxicity (CD22 [4]),cytotoxicity at 0.06 pM (CD22 [5]),cytotoxicity at 0.30 pM (CD22 [5]),cytotoxicity at 1.52 pM (CD22 [5]),cytotoxicity at 7.62 pM (CD22 [5]),cytotoxicity at 38.10 pM (CD22 [5]),cytotoxicity at 190.48 pM (CD22 [5]),cytotoxicity at 952.40 pM (CD22 [5]),cytotoxicity at 4762.00 pM (CD22 [5]),EC50 of cytotoxicity (CD22 [6]),other results
"anti-CD22 (clone hLL2) Fab NTBV switch (Fab, V domains shown) VH: QVQLVQSGAEVKKPGSSVKVSCKASGYTFTSYWLHWVRQAPGQGLEWIGYINPRNDYTEYNQNFKDKATITADESTNTAYMELSSLRSEDTAFYFCARRDITTFYWGQGTTVTVSS VL: DIQLTQSPSSLSASVGDRVTMSCKSSQSVLYSANHKNYLAWYQQKPGKAPKLLIYWASTRESGVPSRFSGSGSGTDFTFTISSLQPEDIATYYCHQYLSSWTFGGGTKLEIKR",–,–,–,–,–,–,–,–,–,–,–,–,–,–,–,–,EC50 of cytotoxicity (CD22 [1]): 0.135 nM; cytotoxicity at 0.01 pM (CD22 [2]): 1.52; cytotoxicity at 0.1 pM (CD22 [2]): 2.19; cytotoxicity at 1 pM (CD22 [2]): 4.2; cytotoxicity at 10 pM (CD22 [2]): 2.07; cytotoxicity at 1000 pM (CD22 [2]): -2.07; cytotoxicity at 10000 pM (CD22 [2]): 1.5
anti-CD22 (clone hLL2) Fab CTBV3 switch (3 GGGGS linker) (Fab) light: DIQLTQSPSSLSASVGDRVTMSCKSSQSVLYSANHKNYLAWYQQKPGKAPKLLIYWASTRESGVPSRFSGSGSGTDFTFTISSLQPEDIATYYCHQYLSSWTFGGGTKLEIKRTVAAPSVFIFPPSDEQLKSGTASVVCLLNNFYPREAKVQWKVDNALQSGNSQESVTEQDSKDSTYSLSSTLTLSKADYEKHKVYACEVTHQGLSSPVTKSFNRGECGGGGSGGGGSGGGGSNYHLENEVARLKKL heavy: QVQLVQSGAEVKKPGSSVKVSCKASGYTFTSYWLHWVRQAPGQGLEWIGYINPRNDYTEYNQNFKDKATITADESTNTAYMELSSLRSEDTAFYFCARRDITTFYWGQGTTVTVSSARTKGPSVFPLAPSSKSTSGGTAALGCLVKDYFPEPVTVSWNSGALTSGVHTFPAVLQSSGLYSLSSVVTVPSSSLGTQTYICNVNHKPSNTKVDKKVEPKSCGGGGSGGGGSGGGGSNYHLENEVARLKKL,2.54,7.9,17,51.3,45.3,41.5,0.0149 nM,–,–,–,–,–,–,–,–,–,–
anti-CD22 (clone hLL2) Fab CTBV2 switch (2 GGGGS linker) (Fab) light: DIQLTQSPSSLSASVGDRVTMSCKSSQSVLYSANHKNYLAWYQQKPGKAPKLLIYWASTRESGVPSRFSGSGSGTDFTFTISSLQPEDIATYYCHQYLSSWTFGGGTKLEIKRTVAAPSVFIFPPSDEQLKSGTASVVCLLNNFYPREAKVQWKVDNALQSGNSQESVTEQDSKDSTYSLSSTLTLSKADYEKHKVYACEVTHQGLSSPVTKSFNRGECGGGGSGGGGSNYHLENEVARLKKL heavy: QVQLVQSGAEVKKPGSSVKVSCKASGYTFTSYWLHWVRQAPGQGLEWIGYINPRNDYTEYNQNFKDKATITADESTNTAYMELSSLRSEDTAFYFCARRDITTFYWGQGTTVTVSSARTKGPSVFPLAPSSKSTSGGTAALGCLVKDYFPEPVTVSWNSGALTSGVHTFPAVLQSSGLYSLSSVVTVPSSSLGTQTYICNVNHKPSNTKVDKKVEPKSCGGGGSGGGGSNYHLENEVARLKKL,7.08,2.9,22.1,45.8,45.8,46,0.0126 nM,–,–,–,–,–,–,–,–,–,–
anti-CD22 (clone hLL2) IgG LCCT switch (antibody) light: DIQLTQSPSSLSASVGDRVTMSCKSSQSVLYSANHKNYLAWYQQKPGKAPKLLIYWASTRESGVPSRFSGSGSGTDFTFTISSLQPEDIATYYCHQYLSSWTFGGGTKLEIKRTVAAPSVFIFPPSDEQLKSGTASVVCLLNNFYPREAKVQWKVDNALQSGNSQESVTEQDSKDSTYSLSSTLTLSKADYEKHKVYACEVTHQGLSSPVTKSFNRGECGGGGSNYHLENEVARLKKL heavy: QVQLVQSGAEVKKPGSSVKVSCKASGYTFTSYWLHWVRQAPGQGLEWIGYINPRNDYTEYNQNFKDKATITADESTNTAYMELSSLRSEDTAFYFCARRDITTFYWGQGTTVTVSSARTKGPSVFPLAPSSKSTSGGTAALGCLVKDYFPEPVTVSWNSGALTSGVHTFPAVLQSSGLYSLSSVVTVPSSSLGTQTYICNVNHKPSNTKVDKKVEPKSCDKTHTCPPCPAPPVAGPSVFLFPPKPKDTLMISRTPEVTCVVVDVSHEDPEVKFNWYVDGVEVHNAKTKPREEQYNSTYRVVSVLTVLHQDWLNGKEYKCKVSNKGLPSSIEKTISKAKGQPREPQVYTLPPSRDELTKNQVSLTCLVKGFYPSDIAVEWESNGQPENNYKTTPPVLDSDGSFFLYSKLTVDKSRWQQGNVFSCSVMHEALHNHYTQKSLSLSPGK,–,–,–,–,–,–,–,-2.8,-7.88,-6.59,0.95,14.1,24.4,25.4,28.5,0.0269 nM,–
anti-CD22 (clone hLL2) IgG CTBV switch (antibody) light: DIQLTQSPSSLSASVGDRVTMSCKSSQSVLYSANHKNYLAWYQQKPGKAPKLLIYWASTRESGVPSRFSGSGSGTDFTFTISSLQPEDIATYYCHQYLSSWTFGGGTKLEIKRTVAAPSVFIFPPSDEQLKSGTASVVCLLNNFYPREAKVQWKVDNALQSGNSQESVTEQDSKDSTYSLSSTLTLSKADYEKHKVYACEVTHQGLSSPVTKSFNRGECGGGGSNYHLENEVARLKKL heavy: QVQLVQSGAEVKKPGSSVKVSCKASGYTFTSYWLHWVRQAPGQGLEWIGYINPRNDYTEYNQNFKDKATITADESTNTAYMELSSLRSEDTAFYFCARRDITTFYWGQGTTVTVSSARTKGPSVFPLAPSSKSTSGGTAALGCLVKDYFPEPVTVSWNSGALTSGVHTFPAVLQSSGLYSLSSVVTVPSSSLGTQTYICNVNHKPSNTKVDKKVEPKSCDKTHTCPPCPAPPVAGPSVFLFPPKPKDTLMISRTPEVTCVVVDVSHEDPEVKFNWYVDGVEVHNAKTKPREEQYNSTYRVVSVLTVLHQDWLNGKEYKCKVSNKGLPSSIEKTISKAKGQPREPQVYTLPPSRDELTKNQVSLTCLVKGFYPSDIAVEWESNGQPENNYKTTPPVLDSDGSFFLYSKLTVDKSRWQQGNVFSCSVMHEALHNHYTQKSLSLSPGKGGGGSNYHLENEVARLKKL,–,–,–,–,–,–,–,4.45,-3.82,5.34,7.92,–,29.8,28.6,38,0.0347 nM,–
anti-CD22 (clone hLL2) IgG HCCT switch (antibody) light: DIQLTQSPSSLSASVGDRVTMSCKSSQSVLYSANHKNYLAWYQQKPGKAPKLLIYWASTRESGVPSRFSGSGSGTDFTFTISSLQPEDIATYYCHQYLSSWTFGGGTKLEIKRTVAAPSVFIFPPSDEQLKSGTASVVCLLNNFYPREAKVQWKVDNALQSGNSQESVTEQDSKDSTYSLSSTLTLSKADYEKHKVYACEVTHQGLSSPVTKSFNRGEC heavy: QVQLVQSGAEVKKPGSSVKVSCKASGYTFTSYWLHWVRQAPGQGLEWIGYINPRNDYTEYNQNFKDKATITADESTNTAYMELSSLRSEDTAFYFCARRDITTFYWGQGTTVTVSSARTKGPSVFPLAPSSKSTSGGTAALGCLVKDYFPEPVTVSWNSGALTSGVHTFPAVLQSSGLYSLSSVVTVPSSSLGTQTYICNVNHKPSNTKVDKKVEPKSCDKTHTCPPCPAPPVAGPSVFLFPPKPKDTLMISRTPEVTCVVVDVSHEDPEVKFNWYVDGVEVHNAKTKPREEQYNSTYRVVSVLTVLHQDWLNGKEYKCKVSNKGLPSSIEKTISKAKGQPREPQVYTLPPSRDELTKNQVSLTCLVKGFYPSDIAVEWESNGQPENNYKTTPPVLDSDGSFFLYSKLTVDKSRWQQGNVFSCSVMHEALHNHYTQKSLSLSPGKGGGGSNYHLENEVARLKKL,–,–,–,–,–,–,–,0.25,-1.05,-4.45,8.18,20.9,31.8,–,24.1,0.0153 nM,–
